Substitutions are numbered along the chain they refer to.
Columns and labels:
Experiment in all cases: cell_activity
[1] = test system: Sleeping Beauty transposase SB11 (synthetic); settings: primary human CD3+ T cells, mean; unit inferred from figure legend
[2] = test system: T1, TcBuster D189A/V377T/E469K (Tribolium castaneum); settings: primary human CD3+ T cells, mean; nearly 2-fold over WT at day 14; unit inferred from figure legend
T1 sequence: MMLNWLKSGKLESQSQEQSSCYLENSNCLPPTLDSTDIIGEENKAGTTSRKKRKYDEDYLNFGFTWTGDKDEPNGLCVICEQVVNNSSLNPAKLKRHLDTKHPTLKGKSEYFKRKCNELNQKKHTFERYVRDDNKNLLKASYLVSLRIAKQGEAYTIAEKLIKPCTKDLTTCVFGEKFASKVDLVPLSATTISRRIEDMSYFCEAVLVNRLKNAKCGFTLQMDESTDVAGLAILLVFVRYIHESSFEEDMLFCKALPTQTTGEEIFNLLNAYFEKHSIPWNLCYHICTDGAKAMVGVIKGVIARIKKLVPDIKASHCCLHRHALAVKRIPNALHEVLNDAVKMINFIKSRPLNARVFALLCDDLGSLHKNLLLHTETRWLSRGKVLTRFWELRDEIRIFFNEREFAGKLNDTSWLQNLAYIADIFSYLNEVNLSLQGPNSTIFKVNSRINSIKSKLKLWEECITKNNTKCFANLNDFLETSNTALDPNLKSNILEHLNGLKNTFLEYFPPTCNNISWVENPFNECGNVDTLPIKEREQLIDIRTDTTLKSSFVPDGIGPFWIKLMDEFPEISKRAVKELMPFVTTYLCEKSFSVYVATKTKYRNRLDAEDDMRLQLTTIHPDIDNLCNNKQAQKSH

[3] = test system: T2, TcBuster V377T/E469K V377T,E469K (Tribolium castaneum); settings: primary human CD3+ T cells, mean; nearly 2-fold over WT at day 14; unit inferred from figure legend
T2 sequence: T1 sequence with A189D

“mini-circle transposon with TcBuster and Sleeping Beauty IR/DRs, GFP cargo” was tested, and the activity [1] was 8.4 % GFP+ cells, the activity [2] was 24.1 % GFP+ cells and the activity [3] was 20.2 % GFP+ cells.

From US20200323902
